These results are taken from patent publication US20120283136A1, “COMPOSITIONS AND METHODS FOR THE RAPID BIOSYNTHESIS AND IN VIVO SCREENING OF BIOLOGICALLY RELEVANT PEPTIDES” (THE UNIVERSITY OF SOUTHERN CALIFORNIA, priority 2009, published 2012).

“Also recorded” adds a separate entry of the source. Where no end group is shown, it is not given here.

What is called Ki is a measure of affinity in units of concentration, obtained from inhibition or displacement.

Data set [1] addresses trypsin. The settings on record: read-out: Ki (affinity for trypsin); cited from earlier work.
In data set [2] the target is trypsin (Sus scrofa, UniProt P00761). As to the kind of experiment: Competing trypsin-binding experiments (sequential extraction with limiting trypsin-sepharose). The settings on record: in vitro and in vivo cyclized libraries, trypsin-sepharose under competing conditions (about 20% of beads required for stoichiometric binding), MCoTI-I wt as internal reference.
Chain of trypsin (Sus scrofa, UniProt P00761) (P00761 9-231): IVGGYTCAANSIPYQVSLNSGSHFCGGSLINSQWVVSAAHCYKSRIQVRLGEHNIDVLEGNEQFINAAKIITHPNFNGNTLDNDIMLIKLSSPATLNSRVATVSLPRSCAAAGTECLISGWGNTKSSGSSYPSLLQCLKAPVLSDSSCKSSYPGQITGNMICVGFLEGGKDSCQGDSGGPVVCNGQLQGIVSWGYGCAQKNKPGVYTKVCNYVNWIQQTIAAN
The target of data set [3] is LF protease (Bacillus anthracis, UniProt P15917). Type of data set: biochemical, B. anthracis strain Sterne.
For data set [4] the following is noted: Saether et al. (1995); cited from earlier work.

As for “MCoTI-II (cyclo(SGSDGGVCPKILKKCRRDSDCPGACICRGNGYCG); ends not checked; also: three disulfide bonds (cystine knot), pairing not given here; UniProt P82409 1-34, looked up)”, in data set [1], the Ki is around 2 pM.

Take “Q7G (CGSGSDGGVCPKILGRCRRDSDCPGACICRGNGY; not fully specified (bridges); ends and bridges not checked)”: in data set [2], the “relative affinity for trypsin versus MCoTI-I wt (elution profile)” value is “lower affinity; also recorded: weaker affinity”.

With “H-RRKKVYPYPMEGTIA-NH2 [consensus LF substrate peptide made by Fmoc solid-phase synthesis]”, in data set [3], the “time for cleavage of the P1-P1′ peptide bond by LF” value is “less than 15 minutes”.

“Kalata B1 (cyclo(GLPVCGETCVGGTCNTPGCTCSWPVCTRN); ends not checked; also: three disulfide bonds (cystine knot), pairing not given here; UniProt P56254 89-117, looked up) [first cyclotide to be discovered, from Oldenlandia affinis]”: the oral bioavailability result in data set [4] is reported as “orally bioavailable”.
